“And” between values parts separate entries of the source, which are not always exact repeats. Equal entries are not always repeated. Values belong to the molecule of their own block, whether it stands above or below them.
Assays:
[1] = target: ErCry4a C317A mutant (European robin (Erithacus rubecula)); experiment: native MS; 200 mM ammonium acetate, pH 8; nanoflow electrospray, Q Exactive, positive ion mode; micromolar protein concentrations; His-tagged proteins; WT sample of Figure 3A shipped with 10 mM BME
[2] = target: European robin cryptochrome 4a (Erithacus rubecula Cry4a), wild type, with N-terminal 10x His-tag (European robin (Erithacus rubecula)); experiment: mass photometry; 44 nM ErCry4a WT in 200 mM ammonium acetate, pH 8.3; sample shipped with 2 mM DTT; ONE-MP instrument
[3] = target: European robin cryptochrome 4a (Erithacus rubecula Cry4a), wild type, with N-terminal 10x His-tag (European robin (Erithacus rubecula)); experiment: native MS; 200 mM ammonium acetate, pH 8; nanoflow electrospray, Q Exactive, positive ion mode; micromolar protein concentrations; His-tagged proteins; WT sample of Figure 3A shipped with 10 mM BME
[4] = target: European robin cryptochrome 4a (Erithacus rubecula Cry4a), wild type, with N-terminal 10x His-tag (European robin (Erithacus rubecula)); experiment: as above; remark: listed apart in the source
[5] = target: ErCry4a C412A + C317A mutant (European robin (Erithacus rubecula)); experiment: as above
[6] = target: T1, ErCry4a (Erithacus rubecula, UniProt A0A2I4SZI9); experiment: native mass spectrometry of holoprotein; assay type: binding; conditions: co-purified non-covalently bound FAD; 200 mM ammonium acetate, pH 8; monomer and dimer
T1 construct: full-length wild type (CTT residues 498-527), N-terminal 10x His-tag kept for native MS, expressed in E. coli; monomer with minor disulfide-linked dimer
T1 sequence (A0A2I4SZI9 1-527): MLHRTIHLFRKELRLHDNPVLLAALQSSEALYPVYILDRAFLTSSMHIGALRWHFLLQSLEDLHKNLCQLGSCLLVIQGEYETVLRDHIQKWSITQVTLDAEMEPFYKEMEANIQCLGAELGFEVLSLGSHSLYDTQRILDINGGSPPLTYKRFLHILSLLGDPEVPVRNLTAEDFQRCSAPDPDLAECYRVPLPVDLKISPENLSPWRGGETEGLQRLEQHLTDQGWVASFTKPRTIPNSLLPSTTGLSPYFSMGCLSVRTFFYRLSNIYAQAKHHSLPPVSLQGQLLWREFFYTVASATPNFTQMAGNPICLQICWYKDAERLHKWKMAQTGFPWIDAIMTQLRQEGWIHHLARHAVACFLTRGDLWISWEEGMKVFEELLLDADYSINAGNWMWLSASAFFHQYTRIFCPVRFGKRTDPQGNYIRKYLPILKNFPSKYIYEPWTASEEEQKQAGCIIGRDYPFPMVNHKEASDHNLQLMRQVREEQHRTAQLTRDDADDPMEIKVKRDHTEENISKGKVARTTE

[7] = target: ErCry4a C412A mutant (European robin (Erithacus rubecula)); experiment: native MS; 200 mM ammonium acetate, pH 8; nanoflow electrospray, Q Exactive, positive ion mode; micromolar protein concentrations; His-tagged proteins; WT sample of Figure 3A shipped with 10 mM BME

Molecule: ErCry4a C412A + C317A mutant (natural protein)
stoichiometry N [5]: 2 and 3

Molecule: Cc1cc2nc3c(=O)[nH]c(=O)nc-3n(C[C@H](O)[C@H](O)[C@H](O)COP(=O)(O)OP(=O)(O)OC[C@H]3O[C@@H](n4cnc5c(N)ncnc54)[C@H](O)[C@@H]3O)c2cc1C [FAD]
native mass spectrometry of holoprotein [6]: the ErCry4a dimers bind FAD and have native MS charge-state distributions

Molecule: ErCry4a C412A mutant (natural protein)
stoichiometry N [7]: 2 and 3

Now from value to molecule:

stoichiometry N [1]: 2 and 3
Molecule: ErCry4a C317A mutant (natural protein)

percent of counts in the dimer peak [2]: 11%
stoichiometry N [2]: 2
stoichiometry N [3]: 2
stoichiometry N [4]: 3
Molecule: European robin cryptochrome 4a (Erithacus rubecula Cry4a), wild type, with N-terminal 10x His-tag (natural protein)
